The values that follow come from article PMC1851640.

Data set [1] concerns the target T1, StpA (Escherichia coli) (UniProt P0ACG1).
T1 sequence: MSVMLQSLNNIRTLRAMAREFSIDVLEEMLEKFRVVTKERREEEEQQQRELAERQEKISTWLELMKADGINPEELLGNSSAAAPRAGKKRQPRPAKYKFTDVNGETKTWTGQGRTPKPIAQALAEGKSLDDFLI
The experiment in a line: filter binding.

For data set [2], the system named is G126V-StpA (Escherichia coli). The experiment in a line: filter binding.
Data set [3] deals with T2, StpA (Escherichia coli, UniProt P0ACG1 1-134).
T2 sequence: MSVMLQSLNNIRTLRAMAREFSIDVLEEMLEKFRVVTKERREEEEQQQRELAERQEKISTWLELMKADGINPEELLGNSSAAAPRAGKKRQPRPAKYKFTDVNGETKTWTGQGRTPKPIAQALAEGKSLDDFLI
The experiment in a line: filter binding.

For data set [4], the target named is T2, StpA. The experiment in a line: filter binding. This is another data set of the same source.
Data set [5] addresses T2, StpA. The experiment in a line: FRET.

As for sho-sho td pre-mRNA, in data set [1], the Kd amounted to 730 nM and the binding signal was 17 % bound. As to sho-sho tdC865U pre-mRNA, the figures for the binding signal in data set [1] and in data set [2] were 27 % bound and 7 % bound, respectively. For the molecule td mRNA (intronless), the Kd in data set [1] is 580 nM. td ribozyme RNA: in data set [1], the binding signal was found to be 70 % bound. Regarding AUGUGGAAAAUCUCUAGCAGU (ssRNA) [21R+], the binding result in data set [3] is reported as “binds”.

B1: 21R+/21R- duplex (dsRNA)
RNA 1: AUGUGGAAAAUCUCUAGCAGU
RNA 2: ACUGCUAGAGAUUUUCCACAU
B1: the binding result in data set [4] is on record as “no binding”.

B2: 21R+ and duplex- (non-complementary pair) (ssRNA)
RNA 1: AUGUGGAAAAUCUCUAGCAGU
RNA 2: CUUUCAUUGGUCGGUCUCUCC
As to B2, the binding result in data set [5] is listed as “binds”.

The term Kd denotes the concentration at which binding is half-saturated. Higher therefore signals a looser complex.
